Results as given in patent US5885833.

Biological target: E2F1-DP1 heterodimer (E2F1 aa 87-1398 as printed) (Homo sapiens?) (UniProt Q01094+Q14186)
Experiment: EMSA
[1] = complex not specified individually

Chain of E2F1-DP1 heterodimer (E2F1 aa 87-1398 as printed) (Homo sapiens?) (Q01094 whole entry, chain 1 of 2, the tested form may be a part): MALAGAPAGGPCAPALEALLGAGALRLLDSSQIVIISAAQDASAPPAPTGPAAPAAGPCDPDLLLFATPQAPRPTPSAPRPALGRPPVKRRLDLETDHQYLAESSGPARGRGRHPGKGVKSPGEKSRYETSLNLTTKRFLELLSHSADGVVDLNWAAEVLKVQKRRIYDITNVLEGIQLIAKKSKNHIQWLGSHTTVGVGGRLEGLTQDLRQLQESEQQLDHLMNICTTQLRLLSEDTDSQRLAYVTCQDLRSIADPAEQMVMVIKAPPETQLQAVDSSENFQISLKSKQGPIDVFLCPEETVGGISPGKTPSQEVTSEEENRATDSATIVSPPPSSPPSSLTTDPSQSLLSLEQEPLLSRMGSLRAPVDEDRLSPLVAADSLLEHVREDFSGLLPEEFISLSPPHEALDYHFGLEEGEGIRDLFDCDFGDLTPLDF
Chain of E2F1-DP1 heterodimer (E2F1 aa 87-1398 as printed) (Homo sapiens?) (Q14186 whole entry, chain 2 of 2, the tested form may be a part): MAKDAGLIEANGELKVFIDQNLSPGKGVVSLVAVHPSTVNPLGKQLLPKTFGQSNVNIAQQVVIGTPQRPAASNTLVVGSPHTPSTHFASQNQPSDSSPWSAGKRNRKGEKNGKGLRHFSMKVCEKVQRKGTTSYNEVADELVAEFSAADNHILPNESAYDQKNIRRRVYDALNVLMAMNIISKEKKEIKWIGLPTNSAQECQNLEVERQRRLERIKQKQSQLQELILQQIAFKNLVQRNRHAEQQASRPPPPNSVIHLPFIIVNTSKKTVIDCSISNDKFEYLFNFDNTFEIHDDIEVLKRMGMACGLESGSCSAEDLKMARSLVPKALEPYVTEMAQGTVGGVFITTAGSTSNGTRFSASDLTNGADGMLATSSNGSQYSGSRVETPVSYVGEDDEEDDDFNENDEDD

| Sequence | binding signal (% probe bound) [1] | binding signal (% probe bound) (22 C, 50 mM NaCl, pH 8.0) |
| --- | --- | --- |
| GATCCTCTCACCTGCTGCTAG (double strand) [control probe] | < 0.002 | – |
| GATCGACTAGTTTCGCGCCCTTTCTACTAG (double strand) [E2a adenovirus promoter probe] | – | 1 |
| GGCGCCGACGCACTTGGCTGGAGATAGGAAAGTGGTTCTGTG (double strand) [mutated B-myb probe] | < 0.01 | – |
